Measurements: patent publication US12534748B2, “Engineered beta-subunit of tryptophan synthase for production of non-canonical amino acids” (California Institute of Technology, priority 2015, dated 2026)

B1: PfTrpB^0B2: PfTrpB with mutations P12L, E17G, I68V, F274S, T292S, T321A (protein)
chain: MWFGEFGGQYVLETLIGPLKELEKAYKRFKDDEEFNRQLNYYLKTWAGRPTPLYYAKRLTEKIGGAKVYLKREDLVHGGAHKTNNAIGQALLAKFMGKTRLIAETGAGQHGVATAMAGALLGMKVDIYMGAEDVERQKMNVFRMKLLGANVIPVNSGSRTLKDAINEALRDWVATFEYTHYLIGSVVGPHPYPTIVRDFQSVIGREAKAQILEAEGQLPDVIVACVGGGSNAMGIFYPFVNDKKVKLVGVEAGGKGLESGKHSASLNAGQVGVSHGMLSYFLQDEEGQIKPSHSIAPGLDYPGVGPEHAYLKKIQRAEYVAVTDEEALKAFHELSRTEGIIPALESAHAVAYAMKLAKEMSRDEIIIVNLSGRGDKDLDIVLKVSGNVLEHHHHHH
modifications: left off: small tags and cut ends
notes: PfTrpB with mutations P12L, E17G, I68V, F274S, T292S, T321A
B2: PfTrpB: wild-type β-subunit of tryptophan synthase from Pyrococcus furiosus, SEQ ID NO:2 (protein, listed as Pyrococcus furiosus)
chain: MWFGEFGGQYVPETLIEPLKELEKAYKRFKDDEEFNRQLNYYLKTWAGRPTPLYYAKRLTEKIGGAKIYLKREDLVHGGAHKTNNAIGQALLAKFMGKTRLIAETGAGQHGVATAMAGALLGMKVDIYMGAEDVERQKMNVFRMKLLGANVIPVNSGSRTLKDAINEALRDWVATFEYTHYLIGSVVGPHPYPTIVRDFQSVIGREAKAQILEAEGQLPDVIVACVGGGSNAMGIFYPFVNDKKVKLVGVEAGGKGLESGKHSASLNAGQVGVFHGMLSYFLQDEEGQIKPTHSIAPGLDYPGVGPEHAYLKKIQRAEYVTVTDEEALKAFHELSRTEGIIPALESAHAVAYAMKLAKEMSRDEIIIVNLSGRGDKDLDIVLKVSGNVLEHHHHHH
B3: PfTrpB^2G9: PfTrpB with mutation T292S (protein)
chain: MWFGEFGGQYVPETLIEPLKELEKAYKRFKDDEEFNRQLNYYLKTWAGRPTPLYYAKRLTEKIGGAKIYLKREDLVHGGAHKTNNAIGQALLAKFMGKTRLIAETGAGQHGVATAMAGALLGMKVDIYMGAEDVERQKMNVFRMKLLGANVIPVNSGSRTLKDAINEALRDWVATFEYTHYLIGSVVGPHPYPTIVRDFQSVIGREAKAQILEAEGQLPDVIVACVGGGSNAMGIFYPFVNDKKVKLVGVEAGGKGLESGKHSASLNAGQVGVFHGMLSYFLQDEEGQIKPSHSIAPGLDYPGVGPEHAYLKKIQRAEYVTVTDEEALKAFHELSRTEGIIPALESAHAVAYAMKLAKEMSRDEIIIVNLSGRGDKDLDIVLKVSGNVLEHHHHHH
modifications: left off: small tags and cut ends
notes: PfTrpB with mutation T292S
B4: PfTrpB^4D11: PfTrpB with mutations E17G, I68V, F274S, T292S, T321A (protein)
chain: MWFGEFGGQYVPETLIGPLKELEKAYKRFKDDEEFNRQLNYYLKTWAGRPTPLYYAKRLTEKIGGAKVYLKREDLVHGGAHKTNNAIGQALLAKFMGKTRLIAETGAGQHGVATAMAGALLGMKVDIYMGAEDVERQKMNVFRMKLLGANVIPVNSGSRTLKDAINEALRDWVATFEYTHYLIGSVVGPHPYPTIVRDFQSVIGREAKAQILEAEGQLPDVIVACVGGGSNAMGIFYPFVNDKKVKLVGVEAGGKGLESGKHSASLNAGQVGVSHGMLSYFLQDEEGQIKPSHSIAPGLDYPGVGPEHAYLKKIQRAEYVAVTDEEALKAFHELSRTEGIIPALESAHAVAYAMKLAKEMSRDEIIIVNLSGRGDKDLDIVLKVSGNVLEHHHHHH
modifications: left off: small tags and cut ends
notes: PfTrpB with mutations E17G, I68V, F274S, T292S, T321A
B5: TmTrpB^WT: wild-type TrpB from Thermotoga maritima, SEQ ID NO:6 (protein, listed as Thermotoga maritima)
chain: MKGYFGPYGGQYVPEILMPALEELEAAYEEIMKDESFWKEFNDLLRDYAGRPTPLYFARRLSEKYGARIYLKREDLLHTGAHKINNAIGQVLLAKKMGKTRIIAETGAGQHGVATATAAALFGMECVIYMGEEDTIRQKPNVERMKLLGAKVVPVKSGSRTLKDAINEALRDWITNLQTTYYVIGSVVGPHPYPIIVRNFQKVIGEETKKQILEKEGRLPDYIVACVGGGSNAAGIFYPFIDSGVKLIGVEAGGEGLETGKHAASLLKGKIGYLHGSKTFVLQDDWGQVQVTHSVSAGLDYSGVGPEHAYWRETGKVLYDAVTDEEALDAFIELSRLEGIIPALESSHALAYLKKINIKGKVVVVNLSGRGDKDLESVLNHPYVRERIRLEHHHHHH

Columns and labels:
[1] = Kinetics of tryptophan formation monitored at 290 nm (continuous assay for Trp production); assay type: biochemical
Protocol: Kinetics and UV-Vis Spectroscopy. Data were collected between 550 and 250 nm on a UV1800 Shimadzu spectrophotometer (Shimadzu) using 0.25-20 μM of enzyme in 200 mM potassium phosphate (pH 8.0) in a quartz cuvette. Samples were incubated at 75° C. for >3 min to ensure a stable temperature was reached. PfTrpB activity (kcat) was measured by monitoring tryptophan formation at 290 nm using Δe290=1.89 mM^−1·cm^−1.
Purified protein concentrations were determined via the Bradford assay (Bio-Rad). The concentration of PfTrpB^2B9 in heat treated lysates was determined by specific activity. Tryptophan formation was monitored at 75° C. over 1 min at 290 nm using Δε290=1.89 mM^−1 cm^−1·^2 The assay buffer contained 200 mM potassium phosphate pH 8, and 5 μM PLP. Using purified PfTrpB^2B9, we recorded an activity of 0.9 s^−1 with 400 μM Ind and 20 mM Ser. Using this parameter, 375 mg L^−1 of PfTrpB^2B9 active catalyst were prepared as a heat-treated lysate.

PfTrpA [2] = target: T1, PfTrpA (Pyrococcus furiosus, UniProt Q8U094); assay type: biochemical; conditions: percent of its own activity
T1 construct: made in house; host or cells: E. coli BL21 E. cloni EXPRESS
T1 sequence (Q8U094 whole entry, looked up): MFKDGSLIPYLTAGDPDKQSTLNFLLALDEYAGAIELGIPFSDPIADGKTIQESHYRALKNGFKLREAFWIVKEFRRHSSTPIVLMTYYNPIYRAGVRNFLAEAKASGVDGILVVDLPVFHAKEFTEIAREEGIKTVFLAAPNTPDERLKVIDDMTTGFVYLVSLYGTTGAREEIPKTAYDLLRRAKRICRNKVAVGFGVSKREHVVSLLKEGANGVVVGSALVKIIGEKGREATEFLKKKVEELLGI

PfTrpA [3] = assay type: biochemical, Pyrococcus furiosus
[4] = Thermostability T50 (temperature of half-maximal activity after incubation for 1 h); assay type: physicochemical; conditions: for T50: temperature of half-maximal activity after incubation for 1 h
[5] = Substrate selectivity: relative rate of NCAA production with L-serine and indole analogs (UHPLC-MS); assay type: biochemical
Protocol: engineered TrpB enzymes. (A) Indole analogs that have been reported to react with StTrpS were tested for reactivity with the PfTrpB, PfTrpS, and PfTrpB^0B2 enzymes. The nucleophilic atom is indicated with a gray circle. (B) Relative activities of enzyme complex PfTrpS (black) and PfTrpB^0B2 (gray) compared with PfTrpB. Reactions performed in duplicate with 20 mM of each substrate and varying enzyme concentrations to ensure incomplete conversion after 1 h. Products were later confirmed in scaled-up reactions using PfTrpB^0B2.
Substrate Selectivity. The relative rate of NCAA production was measured using 20 mM L-serine and 20 mM indole analog (FIG. 4A) in 200 mM potassium phosphate (pH 8.0) with 5% (vol/vol) DMSO. Reactions were incubated at 75° C. for 1 h, quenched, and the relative rate of production formation was measured by comparing the ratio of the product peaks measured via ultra HPLC-MS (UHPLC-MS) Agilent 1290 with 6140 MS detector at 280 nm and then normalizing for the enzyme concentration.

[6] = Total turnovers of β-MeTrp formation from L-threonine and indole; assay type: biochemical; conditions: for Turnovers: 1 μM purified enzyme, 20 mM each L-threonine and indole, 24 h at 75° C.; for turnovers (TTN) of β-MeTrp production: purified enzyme, 24 hours
Protocol: Total Turnover Number (TTN) determination. Measurements were made using HPLC and LC-MS instruments. The amount of Trp formed was measured at 280 nm using a standard curve with trichlorobenzene as internal standard. […] This same technique was used to determine the TTN of the PfTrpB^2B9 reaction with different nucleophiles. […] […] Before addition of enzyme, all reagents were transferred into a Coy anaerobic chamber with <1 ppm O2 to rapidly exchange the atmosphere in the headspace of the vials to 95/5% N2/H2, which limits competing non-catalytic oxidation of indoles. Enzyme was added in the anaerobic environment with varied catalyst loading to ensure a robust product signal in subsequent analysis. Reaction vessels were capped before being removed from the anaerobic chamber and incubated in a 75° C. water bath for 24 hours. Reactions were quenched the next day by addition of 1 volume (150 μL) of 100% ACN, mixing, and allowing to rest at room temperature for 10 min. Quenched solutions were then diluted 5-fold with 40% ACN in water and analyzed via LC-MS.
To identify the best parent enzyme for optimization, we first measured production of β-MeTrp using purified enzymes from each generation in the evolution if PfTrpB^0B2.

PfTrpA [7] = target: T2, PfTrpA (Pyrococcus furiosus, UniProt Q8U094); assay type: biochemical; conditions: Table 1, values for PfTrpB reported here
T2 construct: made in house; host or cells: E. coli BL21 E. cloni EXPRESS
T2 sequence (Q8U094 1-248): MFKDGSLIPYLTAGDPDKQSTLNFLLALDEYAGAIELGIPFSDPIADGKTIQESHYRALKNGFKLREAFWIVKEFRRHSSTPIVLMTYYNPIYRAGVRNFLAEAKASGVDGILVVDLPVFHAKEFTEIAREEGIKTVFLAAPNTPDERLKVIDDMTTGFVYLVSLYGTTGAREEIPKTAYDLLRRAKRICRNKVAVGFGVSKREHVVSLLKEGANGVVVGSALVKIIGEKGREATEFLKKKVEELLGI
T2 sequence (Q8U093 1-388 partner): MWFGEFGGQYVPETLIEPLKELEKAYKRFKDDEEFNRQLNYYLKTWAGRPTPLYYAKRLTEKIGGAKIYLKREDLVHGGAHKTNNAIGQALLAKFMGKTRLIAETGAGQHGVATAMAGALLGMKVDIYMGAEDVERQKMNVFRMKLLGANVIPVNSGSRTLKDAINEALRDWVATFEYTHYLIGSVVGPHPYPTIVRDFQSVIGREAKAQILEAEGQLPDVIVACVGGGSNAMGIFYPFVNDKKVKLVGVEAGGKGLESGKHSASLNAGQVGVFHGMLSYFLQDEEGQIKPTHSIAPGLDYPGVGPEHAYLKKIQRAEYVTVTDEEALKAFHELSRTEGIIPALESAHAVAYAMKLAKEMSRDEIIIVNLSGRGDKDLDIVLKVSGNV

[8] = Rescreen of library hits for β-MeTrp formation (heat-treated lysate, HPLC); assay type: biochemical; conditions: random mutagenesis library, parent PfTrpB^4D11, 60 min reaction at 75° C.
Protocol: High-throughput screening. For high-throughput expression, BL21 E. cloni Express cells carrying PfTrpB^4D11 and variant plasmids were grown in 96-well deep well plates in 300 μL TBamp at 37° C. and 80% humidity with shaking at 250 rpm overnight. TBamp expression cultures (630 μL) were inoculated with 20 μL of the overnight cultures and continued to grow at 37° C. and 80% humidity with shaking at 250 rpm for 3 h. Expression was induced with the addition of ITPG to a final concentration of 1 mM to pre-chilled (20 min on ice-water bath) cultures. The expression continued for another 20 h at 20° C. with shaking at 250 rpm. Cells were then centrifuged at 4000 g for 10 min and frozen at −20° C. over night. […] The reactions were then arrested by incubation in an ice-water bath, and the amount of β-MeTrp formed was recorded at 290 nm with a plate reader (Tecan Infinite M200).
Cultures of each hit containing missense mutations were grown in triplicate on 5 mL scale and expression and lysis proceeded in the same manner as described in the Cloning, Expression and Purification section above. Reactions using 10 μM protein as heat-treated lysate (determined by Bradford assay) and 20 mM each substrate were run for 1 h at 75° C. and quenched by dilution to 50% ACN.

[9] = Table 1, published values; cited from earlier work

Row | Molecule | kcat change with TrpA (PfTrpA [3]) | T50 [4] [°C] | Turnovers [6] | turnovers (TTN) of β-MeTrp production [6] | further results
1 | B1 | 0.04 | 87 | 180 | – | kcat higher than PfTrpS [1]: threefold; activity when PfTrpA was added (PfTrpA [2]): 4%; activity relative to PfTrpB on the substrate panel ([5]; all nucleophiles tested): substantial increase in activity; rate relative to PfTrpS ([5]; indazole (5)): three; rate relative to PfTrpS ([5]; indoline (6)): approximately six
2 | B2 | 3.2 | 95 | 66 | 66 | kcat change with TrpA (PfTrpA [7]): 3.2; Thermal stability indicators: T50 ([4]; Table 1): 94.7 ± 1.2
3 | B3 | 0.34 | 95 | 420 | – | enhancement of β-MeTrp activity relative to wild-type PfTrpB [6]: approximately 6 fold
4 | B4 | 0.3 | 84 | 660 | ~420 | Fold Improvement (increase in β-MeTrp formation relative to parent) [8]: 1.0 (parent)
5 | B5 | – | – | – | – | kcat change with TrpA [9]: 2.4
